Reference: the PETadex activity labels

Substrate: BHET
Conditions: 120 h

B1: unnamed (protein)
chain: MNSRRASRLARAALAAGALLLSAAALATSNPYQRGPDPTAASLEASRGPFAVSSFTVSRPSGFGAGTVYYPTNAGGTVGAIAVVPGFTARQSSINWWGPRLASHGFVVITIDTNSTSDQPASRATQLMAALRQVVTLSGTSSSPIYNKVDTSRLGVMGWSMGGGGTLIAARNNPTLKAAVPLAPWNSSTNFSSVTVPTLIIACENDTVAPVSSHASPFYNSMTRTEKAYLEINGGSHSCANSGNSNQALLGKYGVAWMKRFMDNDTRYSSFLCGAPHSADLSSKSAISEYRENCPY
With B1 the plate clearing was “clears the plate (z > 3 vs empty vector)”.

B2: unnamed (protein)
chain: MERKNSRRSWAIGLGLLVLAATSAHAQTNPYQKGPDPTSASLNATSGSFSVATSSVSSAVSGFGGGTIYYPTTTGTYAVLAISPGFTATQSSIAWLGRRIATHGFVVITIDTNSTLDQPPSRATQLMAALNYVTNSSSATVRAKVDASRRGVAGHSMGGGGTLYAARDNPSLKAAVPLTAWSTLKSFSSVQVPTLVVGAESDSIAPVSSHSIPFYNSLSGSLDKAYAELNGASHLAPNSTNTPIGRYSVAWVKRFMDNDTRYTPFLCGTPHT
In the case of B2, the plate clearing is reported as “not clears the plate”.

B3: unnamed (protein)
chain: MDPSLKRALGLVVALTAAMLFSASASAQNPPPDDDPEPCQTDCDDGGNGGYTRGPDPTDSYLEASSGPYNVATSNVSSFVSGFGGGTIHYPTNTSGSMGGIVVIPGYVSYESSIEWWGPRLASHGFVVMTIDTNSIYDQPGSRKDQIDAALDYLVGQSNASSSAISGMVDGDRLAAVGWSMGGGGTLQLAAEPGRLKAAMPLAPWNSSFNDFDQIQTPTLIFACESDAVAPVSSHASPFYNDIPDATDKAFFEMNNGSHTCANGGNAYDELLGKYGVSWMKLHLDEDQRYEQFLCGPNHESEYQVS
For B3, the plate clearing was “not clears the plate”.

B4: unnamed (protein)
chain: MKTSRTRTATTTLTRLARLALAAAALLLSAAAQAQSSNPYQRGPDPTAASLEASAGPFAVSTTTVSSASGFGGGTIYYPTNTEGPFAAIAVVPGFTATQSSISWWGPRLASHGFVVITIDTNSTFDQPASRATQLMAALNYVVSLSNTSSSPIYGKVDSNRLGVMGHSMGGGGTLIAARDNPTLKAAIPLAPWNSSTNFSSVTVPTLIIACENDTVAPVSSHASPFYNSIPSSTDKAYLEINGGDHFCANSGNSNKAILGKYGVAWMKRFLDNDTRYSPFLCGAPHQADLSGSAISEYRDNCPY
With B4 the plate clearing was “clears the plate (z > 3 vs empty vector)”.

B5: unnamed (protein)
chain: MPTPNTRPTPFGRLLQVTLAVSALALSLGAQAQQTGADPTTAILEAPAGPLAVSNVKVATPSGFGSGTVYYPTTGKGPYGLVSVTPGFVEGEWAINWLGPLLASHGFVVVTIGTTTILDAPTSRAKQMMAALKQVTALSATKTSPFAGKVDPSRLAVMGHSMGGGGSLDAARDNPNLKAAIPLAPWETTKDYSKITVPTLIVSCDSDVIAPVADHANKFYDSLTPTLTKALVEMKGAGHFCTNGTAIPATRTLVGKYSISWLKRFVDGDTRYSPFLCGAPHQADLAGSLISTYKGNCPY
For B5, the plate clearing was “not clears the plate”.

B6: unnamed (protein)
chain: MAKDRAGDVAAAKLNKSHLRGSPMEITQRGARILGTKCAASLGLLLLAATAAHAQSNPYAKGPDPTSSSLNASAGPFSVATSSVSSLAAVGFGSGTVYYPTTAGSYAAIAISPGFTATESSIAWLGRRVATHGFVVITINTNSTLDQPPSRATQLMAALRYLTNSSSSTVRSRIDTTRLGLAGHSMGGGGTLIAARDNPSLKAAVPLTAWSVTKSFSTMRVPTLVVGAENDSIASVSSHSIPFYNSLPSSLSKAYAELNGASHFAPNTTNTPIGRYTVAWVKRFMDNDTRYSPFLCGSPHDSYATGLVFSDYRDNCPY
B6 was tested, and the plate clearing was “not clears the plate”.

B7: unnamed (protein)
chain: MIMKNIDRRLRHCAVGLGLLLLAAVAQAQTNPLAKGPDPTSDLLNATAGPFAVATTSVSSSVSGFGGGTVYYPTASGSYATVAVCPGFTATQSSIAWIGRRMASHGFVVMTINTNSTLDQPPSRATQLMAALRYLTNSSNSTVRARVDANRLGVAGHSMGGGGTLMAARDNPTLKAAVPMTPWSQTKSFSTVRVPTLIVGAENDSVAPVASHSIPFYTSLSGSLDKAYAELNNASHFAPNSTNTPIGRYSVAWVKRFMDNDTRY
B7 was tested, and the plate clearing was “not clears the plate”.

B8: unnamed (protein)
chain: MRKISFKASLFSTLTLLASSITYAGGGGGNGGNNNGGLPAPDTCEVNCGYNQGSNPSLNSLQSTRGNFSVATSNVPRSVPGFGGGTIYYPRNTSGELATIAIAPGFTAPQDAISWWGPVLASNGFVVITIDTNSRLDQPISRGRQLDSALSYLISQGNSSNSPISGMVDENRLASMGHSMGGGGALRSASRNRLSAAIPLAPFNVGGNSFNDIEVPTMIMACENDGTAPVNIHASPFYNRIPSSTDKALIELDNGNHSCANGGSGRNNAVLATYGVSWMKRFLDKDQRFIPFLCGPNHEANRGISDYRD
B8 was tested, and the plate clearing was “not clears the plate”.

B9: unnamed (protein)
chain: MRSAKTSVLAAVALGAAALLALGACGGSNNPYIRGDDPTEESLSRPGPYAVKSLTEGDRNGPGYGGGTIYYPTDAEPPFAAVAIVPGFTSPQSSIASWGPFLASHGIVAMTIDTNSTFDQPDTRAAALLDALESIKGENTRAGSPLKGKLDTNRLGVMGWSMGGGGTLIAAKDNPELKAAISLCPWNPGSSYSNTKVPTLMIASQADPLAGVSGHSQPFYDSIPDSTPKMLFEVAGGDHFVANNPANGNGQVGRYGLSWLKRFLEGDERYRPFLLEKPPGASDYRTNVY
For B9, the plate clearing was “not clears the plate”.

B10: unnamed (protein)
chain: MQHSPSTSRTRQRVTGILASLAVAVGVGIAAGPAAQGADNPHERGPDPTESSIEASRGSYSISERNVSSLVSGFGGGTIYYPTTTRDGDFGAVVISPGYTGTERTISWLGPRLASQGFVVLTMATNSIYDQPDSRARQLQAALDYLTDSSPVADRIDADRLALMGHSMGGGGTLRAVDDNPDIKAAIPMTPWHVKKNWSSVSTPTLIFGAENDSVARHETHAEPFYESFDRDLQKAYLELDGASHFAPNSSNTTIAKYSISWLKRFVDDDTRYTQFLCPGPSTGWFSDVEKYESSCPF
In the case of B10, the plate clearing is reported as “not clears the plate”.

B11: unnamed (protein)
chain: MFGKFPFARAGLAVGALLLSAAAVAQTNPYQRGPDPTVASLEATRGSFATSSFTVSRPSGYGAGTVYYPTNAGGKVGAIAVVPGFTARQSSINWWGARLASHGFVVITIDTNSTLDQPSSRSSQQMAALRQVVTLAGTTSSPIYNKVDTARLGVMGWSMGGGGSLISAKNNPTLRAAAPQAPWAQESFSTVTVPTLIISCESDTIAPNNTHSFPFYNQMTRNKKANLVINGGSHSCANSGNADAGLIGKYGVAWMKRFMDDDTRFSKFLCGAEHTADLSKRAIEAYKENCPY
In the case of B11, the plate clearing is reported as “not clears the plate”.

B12: unnamed (protein)
chain: MEISKKKCLIGLGLMAMAMGVQAQTNPLAKGPDPTNASIQANGPFAVTTVTISNANANGYGGATVYVPTAAGTYALVAFSPGFTARQDTIAVIGRRLATHGFVVATIDTNSTLDLPDSRGTQLLAALRSVAALNAGNTAAAGKIDTTRLVVTGHSMGGGGTLFASRTNTAIKAGVPIAPFSSGVKNFATPVPQFILGGEVDNVAPVDEHSIPFFNGLPNATPKVYAELNGEDHFFVSESTPNQPASKFQIAWIKRFADNDARYTQFVNSAGVAVERNNGRLSDGRLESF
For B12, the plate clearing was “not clears the plate”.

B13: unnamed (protein)
chain: MRACCAFNSTIPGDTMSLQLTKHFGLAALACAALMSLGAAAHAQSYQKGPNPTASALERAGPFATRTTDVSRYSVTNFGGGTIYYPTAAGQYGAIAVSPGYTASKSTVTFWGERLSSHGFVVIVIDTLTTLDQPASRARQLKAALDKVVSLSRSSSSPIYNKVDPNRLAVMGHSMGGGGTLQAAKDNPGLKAAIPMAPWNTVTNWSAVTVPTLVMACQADAIAPVANHAVPFYNSMSANKKSYIEMAGDDHLCVMNGGGHDATLGKMGIAWMKRFVDNDTRYSPFLCGLPYQATVNTSEVSVHRNNCPY
With B13 the plate clearing was “clears the plate (z > 3 vs empty vector)”.

B14: unnamed (protein)
chain: MKFQRFLQATVLAGATLLSFGAAAIEIGPAPTKASLEASRGPFSVGQFTVSRPSGYGAGTVYYPTNAGAKVGAIAIVPGFVSYQSSIAWWGPRLASHGFVVITIDTNTTVDQPDSRSRQQLAALDQVIALSKTSSSPIYNKVDENRTGVMGWSMGGGGSLISAKNRPSIKAAAPQAPWNSSTNFSSVTVPTLIFACQSDIVAPVAQHASPFYNSITRAPKQYLEKTLGDHFCFNSANATVGLKGVAWMKRFIDGDTRYTSFACSNPNALGFSDFRTARCS
B14 was tested, and the plate clearing was “not clears the plate”.

B15: unnamed (protein)
chain: MIEIRSSYKSKKTNCKRSVMPSMITKKAALPFVISSALLFSASAFAITPPSDPDPDPTPCEGDCDFTRGPDPTESMLEARSGPFNVDTVNVSSRVSGFGGGTIHYPTNTSGQMGAIVVAPGFVSPESSIGWWGPQLASHGFIVMTIATNSLYDQPDSRRDQLEAGLDYLISQSNSSGSDISGMVDSSRLGAMGWSMGGGGALQLAADGRLSAAIPLAPYNSSRNDFDDITTPTLIFACENDAVAAVRSHASPFYNDIPGSTDKAFVEINGGAHSCANGGNTNNSLLSKYGVSWMKLHLDQDQRYSQFLCGPNHESDRSISEYRGTCPY
For B15, the plate clearing was “not clears the plate”.
